Publication PMC9563463, “PARP1-MGMT complex underpins pathway crosstalk in O^6-methylguanine repair” (Journal of Hematology & Oncology, 2022)

Target: T1, full-length PARP1, purified recombinant (UniProt P09874 1-1014)
T1 construct: PARP1, full length; also called purified PARP1; source: purified recombinant
Test: MST; Monolith NT.115, 17% LED power, medium MST power, MST-on time of 10 s; full-length proteins
Settings: both partners purified

T1 sequence (P09874 whole entry): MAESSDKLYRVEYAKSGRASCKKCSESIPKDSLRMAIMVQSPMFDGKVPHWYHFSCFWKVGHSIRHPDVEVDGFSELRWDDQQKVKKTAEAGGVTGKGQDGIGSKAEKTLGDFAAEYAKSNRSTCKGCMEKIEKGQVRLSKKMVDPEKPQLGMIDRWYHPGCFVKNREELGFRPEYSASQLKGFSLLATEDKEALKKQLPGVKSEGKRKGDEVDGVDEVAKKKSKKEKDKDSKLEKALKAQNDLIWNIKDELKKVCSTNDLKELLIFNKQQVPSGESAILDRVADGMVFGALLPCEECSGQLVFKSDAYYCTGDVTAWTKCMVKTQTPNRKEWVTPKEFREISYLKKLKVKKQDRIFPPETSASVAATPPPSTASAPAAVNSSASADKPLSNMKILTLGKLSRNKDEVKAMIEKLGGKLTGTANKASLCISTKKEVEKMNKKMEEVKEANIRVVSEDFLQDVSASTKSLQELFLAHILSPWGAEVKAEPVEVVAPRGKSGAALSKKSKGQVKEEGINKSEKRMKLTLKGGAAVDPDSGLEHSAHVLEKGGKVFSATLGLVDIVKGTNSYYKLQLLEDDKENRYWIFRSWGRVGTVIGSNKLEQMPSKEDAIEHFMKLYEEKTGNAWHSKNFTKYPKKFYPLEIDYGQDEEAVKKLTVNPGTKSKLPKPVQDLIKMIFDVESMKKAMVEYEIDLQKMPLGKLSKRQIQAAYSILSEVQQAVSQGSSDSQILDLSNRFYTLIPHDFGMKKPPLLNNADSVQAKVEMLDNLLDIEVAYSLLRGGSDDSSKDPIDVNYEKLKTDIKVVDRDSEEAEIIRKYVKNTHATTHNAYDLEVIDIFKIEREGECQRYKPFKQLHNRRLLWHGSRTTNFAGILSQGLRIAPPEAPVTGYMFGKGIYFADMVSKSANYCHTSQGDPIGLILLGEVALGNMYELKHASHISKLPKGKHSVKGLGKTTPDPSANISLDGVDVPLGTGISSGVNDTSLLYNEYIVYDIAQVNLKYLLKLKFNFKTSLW

Kd: 165 nM
B1: full-length MGMT, purified recombinant (natural protein, UniProt P16455 1-207, looked up)
chain: MDKDCEMKRTTLDSPLGKLELSGCEQGLHEIKLLGKGTSAADAVEVPAPAAVLGGPEPLMQCTAWLNAYFHQPEAIEEFPVPALHHPVFQQESFTRQVLWKLLKVVKFGEVISYQQLAALAGNPKAARAVGGAMRGNPVPILIPCHRVVCSSGAVGNYSGGLAVKEWLLAHEGHRLGKPGLGGSSGLAGAWLKGAGATSGSPPAGRN
notes: MGMT, full length; also called purified MGMT; source: purified recombinant
